These results are taken from patent US20260151519A1 (AKTIS ONCOLOGY, published 2026).

Bridges are numbered along the chain shown (N, C = ends). Primed or numbered codes have the meaning given here. Where no end group is shown, it is not given here. The star is where a group is joined. Biotin = O=C1N[C@H]2[C@H](CS[C@H]2CCCCC(=O)*)N1; PEG4″ = 4(ethylene glycol)

The labels stand for the following.
T1: Human Nectin-4 (human, UniProt Q96NY8 32-349, limits assumed)
T1 construct: Protein immobilised on the SPR chip; also called target protein
T1 sequence: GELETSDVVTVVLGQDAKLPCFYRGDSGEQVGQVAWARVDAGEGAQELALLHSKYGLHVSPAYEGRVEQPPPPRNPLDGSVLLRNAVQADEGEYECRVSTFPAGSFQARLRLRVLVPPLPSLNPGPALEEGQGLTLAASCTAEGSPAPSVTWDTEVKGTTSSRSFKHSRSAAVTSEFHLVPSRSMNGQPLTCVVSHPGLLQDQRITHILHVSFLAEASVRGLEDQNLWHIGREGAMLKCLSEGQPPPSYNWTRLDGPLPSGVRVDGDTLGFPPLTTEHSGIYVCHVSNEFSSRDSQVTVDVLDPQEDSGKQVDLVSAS

For this assay, the target named is T1, Human Nectin-4. The assay is described as follows: Table 2B (DELFIA or SPR).
As usually defined, the Kd is the constant that tells how readily two partners part at equilibrium. Read a low Kd as higher affinity. Ac-CEYDEEFFAGLKRLRGGDICYYIKKKFKKVPDLCIEEILDKLGC-OH (designed binder, disulfide 1-34, 20-44) [C16] registered a Kd of 4.34 nM.
With {Biotin-PEG4″}-CEDDEEFFADLKRLRGGDICYYIKLKFDKVPDLCIKEILDKLGC (designed binder, disulfide 1-34, 20-44) [C2] the figure was 58.9 nM.
Next, H-CEYDEEFFAGLKRLRGGDICYYIKKKFDKVPDLCIKEILDKLGC-OH (designed binder, disulfide 1-34, 20-44) [C3]: 9.68 nM; Ac-CEYDEEFFAGLKRLRGGDICYYIKKKFDKVPDLCIKEILDKLGC-OH (designed binder, disulfide 1-34, 20-44) [C5]: 18.9 nM; Ac-CEDDFQFFADLKRLRGGDICYYIRLKFDKVPDLCIKEILDKLGC-OH (designed binder, disulfide 1-34, 20-44) [C6]: 17.1 nM.
With H-CEDDFQFFADLKRLRGGDICYYIRLKFDKVPDLCIKEILDKLGC-OH (designed binder, disulfide 1-34, 20-44) [C4] the figure was 14.4 nM.
For the molecule H-CEYDEEFFAGLKRLRGGDICYYIKKKFDKVPDLCIEEILDKLGC-OH (designed binder, disulfide 1-34, 20-44) [C7], binding was characterised by a dissociation constant (Kd) of 5.5 nM.
Next, {Biotin-PEG4″}-CEYDEEFFTALKRLRGDDICEYIQASFQYLPGLCIEEILDNLGCS-OH (designed binder, disulfide 1-34, 20-44) [C181]: 3 nM; {Biotin-PEG4″}-CEYDEQFFTALKRLRGADICDYIQASFQYLPGLCIEEILDNLGCS-OH (designed binder, disulfide 1-34, 20-44) [C194]: 1.1 nM; {Biotin-PEG4″}-CEYDEEFFTALKRLRGGDICEYIQASFQYLPGECIEEILQNLGCS-OH (designed binder, disulfide 1-34, 20-44) [C204]: 1.98 nM.
Next, {Biotin-PEG4″}-CEYDEEFFTALKRLRGADICDYIQASFQYLPGLCIEEILDNLGCS-OH (designed binder, disulfide 1-34, 20-44) [C195]: 2.3 nM.
Next, {Biotin-PEG4″}-CDYDEQFFTALKRLRGADICEYIQASFQYLPGQCIEEILDNLGCS (designed binder, disulfide 1-34, 20-44) [C209]: 1.25 nM; {Biotin-PEG4″}-CDYDEEFFTALKRLRGDDICEYIQASFQYLPGLCIEEILDNLGCS-OH (designed binder, disulfide 1-34, 20-44) [C191]: 1.4 nM; {Biotin-PEG4″}-CEYDEEFFTALKRLRGGDICEYIQAAFQYLPGLCIEEILDNLGCS-OH (designed binder, disulfide 1-34, 20-44) [C198]: 2.3 nM.
Molecule {Biotin-PEG4″}-CEYDEEFFTALKRLRGGDICDYIQASFQYLPGLCIEEILDNLGCS-OH (designed binder, disulfide 1-34, 20-44) [C200] yielded a dissociation constant (Kd) of 2 nM.
Regarding {Biotin-PEG4″}-CDYDEQFFTALKRLRGADICEYIQASFQYLPGLCIEEILDNLGCS-OH (designed binder, disulfide 1-34, 20-44) [C207], the Kd came to 1.08 nM.
With {Biotin-PEG4″}-CDYDEEFFTALKRLRGGDICEYIQASFQYLPGLCIEEILDNLGCS-OH (designed binder, disulfide 1-34, 20-44) [C188] the figure was 1.6 nM; with {Biotin-PEG4″}-CDYDEEFFTALKRLRGGDICSYIQASFQYLPGLCIEEILDNLGCS-OH (designed binder, disulfide 1-34, 20-44) [C189], 1.1 nM.
Next, {Biotin-PEG4″}-CDYDEEFFTALKRLRGDDICSYIQASFQYLPGLCIEEILDNLGCS-OH (designed binder, disulfide 1-34, 20-44) [C192]: 1.3 nM; {Biotin-PEG4″}-CDYDEQFFTALKRLRGGDICEYIQASFQYLPGECIEEILDNLGCS (designed binder, disulfide 1-34, 20-44) [C210]: 1.54 nM; {Biotin-PEG4″}-CEYDEEFFTALKRLRGDDICSYIQASFQYLPGLCIEEILDNLGCS-OH (designed binder, disulfide 1-34, 20-44) [C182]: 3 nM.
With {Biotin-PEG4″}-CEYDEQFFTALKRLRGADICEYIQASFQYLPGLCIEEILDNLGCS-OH (designed binder, disulfide 1-34, 20-44) [C183] the figure was 1.2 nM.
Take {Biotin-PEG4″}-CEYDEEFFTALKRLRGGDICDYIQASFQYLPGECIEEILQNLGCS-OH (designed binder, disulfide 1-34, 20-44) [C205]: the Kd came to 2.1 nM.
With {Biotin-PEG4″}-CDYDEQFFTALKRLRGGDICEYIQASFQYLPGQCIEEILDNLGCS (designed binder, disulfide 1-34, 20-44) [C211], binding was characterised by a dissociation constant (Kd) of 1.19 nM.
The molecule {Biotin-PEG4″}-CEYDEQFFTALKRLRGDDICSYIQASFQYLPGLCIEEILDNLGCS (designed binder, disulfide 1-34, 20-44) [C186] displayed a Kd of 1.7 nM.
With {Biotin-PEG4″}-CDYDEQFFTALKRLRGDDICEYIQASFQYLPGLCIEEILDNLGCS-OH (designed binder, disulfide 1-34, 20-44) [C193] the figure was 1 nM; with {Biotin-PEG4″}-CEYDEQFFTALKRLRGGDICSYIQASFQYLPGLCIEEILDNLGCS (designed binder, disulfide 1-34, 20-44) [C184], 2.5 nM; with {Biotin-PEG4″}-CEYDEEFFTALKRLRGGDICEYIQASFQYLPGECIEEILDNLGCS (designed binder, disulfide 1-34, 20-44) [C202], 2.2 nM.
With {Biotin-PEG4″}-CEYDEEFFTALKRLRGGDICDYIQASFQYLPGECIEEILDNLGCS-OH (designed binder, disulfide 1-34, 20-44) [C203] the figure was 2.3 nM.
